Data on 2 substances can be found in paper PMC4094350.

Assay [1] concerns the target FAK FAT (UniProt Q05397). The experiment in a line: ITC. The note with it: cited from earlier work.
Assay [2] concerns the target GFP-Paxillin (UniProt P49023). The experiment in a line: FRET or BRET.
Assay [3] concerns the target GFP-Paxillin (UniProt P49023). The assay is described as follows: FRET or BRET. The source holds these as a separate data set.
Assay [4] has as its target GFP-Paxillin (UniProt P49023). The experiment in a line: FRET or BRET. The source holds these as a separate data set.

Where two headings read alike, the source gives them in different places.

Chain of UniProt Q05397 (Q05397 914-1045): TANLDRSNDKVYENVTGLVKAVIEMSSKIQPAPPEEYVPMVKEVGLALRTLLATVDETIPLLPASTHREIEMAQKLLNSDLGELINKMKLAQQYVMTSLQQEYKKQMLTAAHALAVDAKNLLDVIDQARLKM

On to “paxillin LD peptide LD motif (from UniProt P49023)”, for which the Kd in assay [1] is 10 µM.
With “FAT-mCherry (from UniProt P34152 1-1052) (domain or fragment)”, the Kd in assay [2] was 0.367 µM; in assay [3], 0.209 µM; in assay [4] it was 0.209 µM.
